Laboratory results published in KR20170011863A.

Substrate: B형 간염 바이러스의 표면 항원 (Hepatitis B surface antigen; HBsAg) (Hepatitis B virus)
Test: cell-based or functional assay

B1: GC1102 (HBsAg에 대한 인간 HBV 항체) (antibody, V domains shown)
VH: QVKLLESGGGLVKPGGSLRLSCSASGFSLTKYKMTWVRQAPGKGLEWVSSISSTSRDIDYADSVKGRFTISRDNAKNSLFLQMSSLRVDDTAVYYCTRDGWLWGWDVRSNYYYNALDVWGQGTTVTVSS
VL: ELVMTQSPSSLSASVGDRVTITCRASQGIYNSIAWYQQKPGKAPKLLLYSTSTLLSGVPSRFSGSGSGTDYTLTITNLQPEDFATYYCQQYFVTPETFGQGTKVEIKR
Question: With B1 as the binder, how does the EC50 (effective concentration) of inhibition of HBV infection of HepG2-NTCP cells read?
Answer: 0.015 µg/mL

Question: What about the EC50 (effective concentration) of inhibition of HBV infection of HepG2-NTCP cells, converted to molar concentration (150 kDa) of the same binder?
Answer: 0.1 nM
